Measured values as given in patent publication US20060073572A1, “Cytokine structurally related to IL-17” (The Johns Hopkins University, priority 2001, published 2006).
“Also recorded” adds a separate entry of the source.

Tested on: IL-6
Assay: IL-6 expression in HUVECs (ELISA, RT-PCR)
Assay type: cell-based, human
Conditions: ML-1 10 and 100 ng/ml, 24 and 48 hours, ELISA
Description: FIG. 5. Analysis of IL-6 (FIG. 5A) and IL-8 (FIG. 5B) expression in primary bronchial epithelial cells (PBECs) and human umbilical vein endothelial cells (HUVECs) stimulated by ML-1. The IL-6 and IL-8 protein release in the supernatant was determined by ELISA as described in Example 8. The results were expressed as mean+SD (n=6). *p<0.05 was considered significant vs control.
FIG. 7A-7D. Effect of PD98059 on IL-6 (FIG. 7A) and IL-8 (FIG. 7B) protein production in PBECs and HUVECs. The cells were preincubated with varying concentrations of PD98059, SB202190, or DMSO vehicle control for 1 hour, followed by stimulation with ML-1 (100 ng/ml) for 24 hours. The results are expressed as the mean+SD (n=6). *P<0.05 when compared to cultures without the addition of PD98059. FIGS. 7C and 7D. Semi-quantitative analysis of gene expression for IL-6 (FIG. 7C) and IL-8 (FIG. 7D) by RT-PCR. The cells were preincubated as described above and treated with ML-1 for 4 hours. RT-PCR was performed as described in Example 8. The results shown are representative of three separate experiments.
Human umbilical vein endothelial cells (HUVECs) were obtained from Clonetics and cultured in endothelial cell growth media (EGM; Clonetics) containing 12 μg/ml bovine brain extract, 10 ng/ml EGF, 1 μg/ml hydrocortisone, 50 μg/ml gentimicin, 50 ng/ml amphotericin B, and 5% FBS amphotericin-B (Clonetics).
PBECs and HUVECs were treated with ML-1 100 ng/ml of ML-1 for various time points. Total RNA was extracted using RNeasy (Qiagen) from 1×10^6 cells 4 hours after stimulation or exchange of media. […]
The amplification reaction was performed for 23 cycles with denaturation at 94° C. for 45 seconds, annealing at 56° C. for 45 seconds, and extension at 72° C. for 45 seconds. PCR products were detected by ethidium bromide staining and normalized by the intensity of an amplified housekeeping gene, G3PDH (see above). […] IL-6 and IL-8 protein levels in the collected supernatants were determined with a commercially available ELISA kit (Biosource, Camarillo, Calif.) according to the manufacturer's instructions.

B1: ML-1: new member of the IL-17 cytokine family, SEQ ID NO:2; His-tagged recombinant protein expressed in COS-7 cells and affinity purified (protein, listed as Homo sapiens)
chain: MKLDIGIINENQRVSMSRNIESRSTSPWNYTVTWDPNRYPSEVVQAQCRNLGCINAQGKEDISMNSVPIQQETLVVRRKHQGCSVSFQLEKVLVTVGCTCVTPVIHHVQ
modifications: His tag
With B1 the IL-6 production was “time-dependent increase; also recorded: significantly induced”.
